Data reported in the supplement of paper PMC7125110.
± gives the standard error. For part of these data: Variants at the floor of the assay were thinned out.

B1: glmS ribozyme (parent)
chain: AUAAAAGCGCCAGAACUACAGAAAUGUAGUUGACGAGGAGGAGGUUUAUCGAAUUUUCGGCGGAUGCCUCCAAA

Tests used:
Settings in all cases: with glucosamine-6-phosphate
glucosamine-6-phosphate [1] = variants of: B1; assay: kcat; higher = faster cleavage; RNA array
How it was run: (§1)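 A hybridised Cy3 probe tracked barcoded ribozyme variants, transcribed in situ by E. coli RNA polymerase on sequenced MiSeq chips, at 37 °C. The variants received 40 μM to 10 mM glucosamine-6-phosphate in HEPES/KCl/Mg(OAc)2 buffer. kobs came from decay fits and kcat and KM from weighted Michaelis–Menten fits.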

glucosamine-6-phosphate [2] = variants of: B1; assay: KM; higher = weaker cofactor use; RNA array
How it was run: as §1

glucosamine-6-phosphate [3] = variants of: B1; assay: self-cleavage kobs at 160 uM GlcN6P; higher = faster cleavage; RNA array
How it was run: as §1

glucosamine-6-phosphate [4] = variants of: B1; assay: self-cleavage kobs at 640 uM GlcN6P; higher = faster cleavage; RNA array
How it was run: as §1

glucosamine-6-phosphate [5] = variants of: B1; assay: self-cleavage kobs at 2500 uM GlcN6P; higher = faster cleavage; RNA array
How it was run: as §1

glucosamine-6-phosphate [6] = variants of: B1; assay: self-cleavage kobs at 10000 uM GlcN6P; higher = faster cleavage; RNA array
How it was run: as §1

glucosamine-6-phosphate [7] = variants of: B1; assay: self-cleavage kobs at 40 uM GlcN6P; higher = faster cleavage; RNA array
How it was run: as §1

Variant | kcat (glucosamine-6-phosphate [1]) [s⁻¹] | KM (glucosamine-6-phosphate [2]) [µM] | self-cleavage kobs at 160 uM GlcN6P (glucosamine-6-phosphate [3]) [s⁻¹] | self-cleavage kobs at 640 uM GlcN6P (glucosamine-6-phosphate [4]) [s⁻¹] | self-cleavage kobs at 2500 uM GlcN6P (glucosamine-6-phosphate [5]) [s⁻¹] | self-cleavage kobs at 10000 uM GlcN6P (glucosamine-6-phosphate [6]) [s⁻¹] | self-cleavage kobs at 40 uM GlcN6P (glucosamine-6-phosphate [7]) [s⁻¹]
C16G A53C | 0.000746 ± 0.0001 | 1750 ± 490 | 4.82e-05 ± 2.3e-05 | 0.000233 ± 6.3e-05 | 0.000524 ± 0.00012 | 0.000599 ± 0.0001 | –
C16U G66C | 0.000514 ± 9.1e-05 | 657 ± 250 | 9.64e-05 ± 2.1e-05 | 0.000282 ± 4e-05 | 0.000496 ± 7.3e-05 | 0.000398 ± 7.3e-05 | –
G29C U45C | 0.000137 ± 2.1e-05 | 2120 ± 930 | – | – | 9.03e-05 ± 2e-05 | 0.000108 ± 1.8e-05 | –
G29C U45G | 0.000453 ± 2e-05 | 4250 ± 400 | – | 6.1e-05 ± 1.6e-05 | 0.000159 ± 3.6e-05 | 0.000319 ± 3.3e-05 | –
G29C G32U A33U C50G U56G G66C U69C | 1.64e-05 ± 5.6e-06 | – | – | – | – | – | –
C16U G37U | < 1e-05 | – | – | – | – | – | < 1e-05
C16U G60A | 1.69e-05 ± 4.6e-06 | – | – | – | 2.66e-05 ± 1.3e-05 | – | < 1e-05
C16U U47A | 0.0299 ± 0.0051 | 3060 ± 660 | – | 0.00515 ± 0.00087 | 0.0118 ± 0.003 | 0.0259 ± 0.0068 | 0.0004 ± 7.1e-05
G29U A39G | 0.0173 ± 0.0026 | 3640 ± 720 | 0.000723 ± 0.00021 | 0.00233 ± 0.0004 | 0.0072 ± 0.0012 | 0.0129 ± 0.0028 | 0.000218 ± 4.4e-05
C16U A42U | 0.000129 ± 1e-05 | 903 ± 300 | – | 4.79e-05 ± 1.9e-05 | 0.000107 ± 2.2e-05 | 0.000115 ± 1.7e-05 | –
G29U A36U | < 1e-05 | – | – | – | < 1e-05 | – | –
C16U G66C C67U | 3.45e-05 ± 4.4e-06 | – | – | – | – | – | –
A15U U55C | 0.00268 ± 0.0003 | 915 ± 160 | 0.00039 ± 6.4e-05 | 0.00136 ± 0.00052 | 0.00158 ± 0.00036 | 0.00269 ± 0.00038 | 0.000117 ± 2.1e-05
C16G U55A | 0.00566 ± 0.0022 | – | 0.000313 ± 6.3e-05 | 0.000819 ± 0.00014 | 0.00327 ± 0.00047 | 0.00463 ± 0.00062 | 0.00015 ± 1.9e-05
C16G U55C | 0.00146 ± 0.00056 | – | 0.000158 ± 7.7e-05 | 0.000574 ± 8.2e-05 | 0.000702 ± 0.00013 | 0.00213 ± 0.00033 | 4.65e-05 ± 1.3e-05
C16A A52G | 0.000129 ± 7.4e-06 | 730 ± 180 | – | 6.18e-05 ± 2.3e-05 | 0.000102 ± 1.9e-05 | 0.000118 ± 1.9e-05 | –
